From article PMC8682777, “Mechanisms of distinctive mismatch tolerance between Rad51 and Dmc1 in homologous recombination” (Nucleic Acids Research, 2021)

Key:
ScDmc1 wt [1] = target: T1, ScDmc1 wt (UniProt P25453 1-334); test: cryo-EM; 2 mM ATP, 5 mM Ca2+; presynaptic complex; hRAD51: 25 mM HEPES pH 7.5, 25 mM KCl, 4 mM MgCl2, 4 mM AMP-PNP, 37 C; ScDmc1: 35 mM Tris-HCl pH 7.5, 96 mM KCl, 2 mM ATP, 5 mM CaCl2, 1 mM DTT, 37 C. Strand-exchange/smFRET activity assays and MM-GBSA energies not listed.; details: protein: recombinant; tags: His6
T1 sequence: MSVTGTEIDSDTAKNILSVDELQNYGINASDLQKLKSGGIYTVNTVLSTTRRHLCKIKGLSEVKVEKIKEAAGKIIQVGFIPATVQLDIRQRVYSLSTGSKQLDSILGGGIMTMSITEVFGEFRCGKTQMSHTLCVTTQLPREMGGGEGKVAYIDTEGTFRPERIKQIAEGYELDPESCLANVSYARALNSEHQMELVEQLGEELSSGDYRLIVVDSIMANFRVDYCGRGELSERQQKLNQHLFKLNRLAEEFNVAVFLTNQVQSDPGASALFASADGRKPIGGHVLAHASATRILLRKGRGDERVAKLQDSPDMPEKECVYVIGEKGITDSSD

hRAD51 wt [2] = target: T2, hRAD51 wt (Homo sapiens (human), UniProt Q06609 1-339); test: cryo-EM; 4 mM AMP-PNP, 4 mM Mg2+, RS-1; presynaptic complex; hRAD51: 25 mM HEPES pH 7.5, 25 mM KCl, 4 mM MgCl2, 4 mM AMP-PNP, 37 C; ScDmc1: 35 mM Tris-HCl pH 7.5, 96 mM KCl, 2 mM ATP, 5 mM CaCl2, 1 mM DTT, 37 C. Strand-exchange/smFRET activity assays and MM-GBSA energies not listed.; details: protein: recombinant; chain copies: 10
ScDmc1 wt [3] = target: T1, ScDmc1 wt; test: cryo-EM; 2 mM ATP, 5 mM Ca2+, Hop2-Mnd1 added; postsynaptic complex; hRAD51: 25 mM HEPES pH 7.5, 25 mM KCl, 4 mM MgCl2, 4 mM AMP-PNP, 37 C; ScDmc1: 35 mM Tris-HCl pH 7.5, 96 mM KCl, 2 mM ATP, 5 mM CaCl2, 1 mM DTT, 37 C. Strand-exchange/smFRET activity assays and MM-GBSA energies not listed.; details: protein: recombinant; tags: His6; blunt
hRAD51 273-PG-274 = hRAD51 273-PG-274 (Homo sapiens (human), UniProt Q06609 1-339, V273P;D274G); test: cryo-EM; AMP-PNP, Mg2+, Hop2-Mnd1 added, no RS-1; postsynaptic complex; hRAD51: 25 mM HEPES pH 7.5, 25 mM KCl, 4 mM MgCl2, 4 mM AMP-PNP, 37 C; ScDmc1: 35 mM Tris-HCl pH 7.5, 96 mM KCl, 2 mM ATP, 5 mM CaCl2, 1 mM DTT, 37 C. Strand-exchange/smFRET activity assays and MM-GBSA energies not listed.; details: protein: recombinant; chain copies: 16; blunt
hRAD51 wt [4] = target: T2, hRAD51 wt; test: cryo-EM; AMP-PNP, Mg2+, Hop2-Mnd1 added to trigger exchange, no RS-1; postsynaptic complex; hRAD51: 25 mM HEPES pH 7.5, 25 mM KCl, 4 mM MgCl2, 4 mM AMP-PNP, 37 C; ScDmc1: 35 mM Tris-HCl pH 7.5, 96 mM KCl, 2 mM ATP, 5 mM CaCl2, 1 mM DTT, 37 C. Strand-exchange/smFRET activity assays and MM-GBSA energies not listed.; details: protein: recombinant; chain copies: 16; blunt
[5] = target: the molecule itself; test: cryo-EM structure; helical filaments of 4 uM ScDmc1 on 150-mer ssDNA (presynaptic) or after strand exchange with 150-bp dsDNA and 0.4 uM Hop2-Mnd1 (postsynaptic); 35 mM Tris-HCl pH 7.5, 96 mM KCl, 2 mM ATP, 5 mM CaCl2, 1 mM DTT, 37°C
[6] = target: the molecule itself; test: cryo-EM structure; helical filaments of 2 uM hRAD51 on 150-mer ssDNA with 2 uM RS-1 (presynaptic, wt only) or after strand exchange with dsDNA and 0.2 uM Hop2-Mnd1 without RS-1 (postsynaptic, wt and 273-PG-274); 25 mM HEPES pH 7.5, 25 mM KCl, 4 mM MgCl2, 4 mM AMP-PNP, 37°C

B1: 150-mer ssDNA oligo 4 (ssDNA)
DNA: TAAATAAGATAAGGATAATACAAAATAAGTAAATGAATAAACAGAGAAAATAAAGTAAAGGATATAAAAAATGAACATAAAGAATAAGTAAATGAATAAAACATAATAGGAATAAATATAGGAAATGAAATAAAAGAGACATAAATAAGA
ScDmc1 wt [1]
  binding result: binds
hRAD51 wt [2]
  binding result: binds

B2: 150-bp homologous dsDNA oligo 4/oligo 5 (postsynaptic) (dsDNA)
DNA 1: TAAATAAGATAAGGATAATACAAAATAAGTAAATGAATAAACAGAGAAAATAAAGTAAAGGATATAAAAAATGAACATAAAGAATAAGTAAATGAATAAAACATAATAGGAATAAATATAGGAAATGAAATAAAAGAGACATAAATAAGA
DNA 2: TCTTATTTATGTCTCTTTTATTTCATTTCCTATATTTATTCCTATTATGTTTTATTCATTTACTTATTCTTTATGTTCATTTTTTATATCCTTTACTTTATTTTCTCTGTTTATTCATTTACTTATTTTGTATTATCCTTATCTTATTTA
ScDmc1 wt [3]
  binding result: binds
hRAD51 273-PG-274
  binding result: binds
hRAD51 wt [4]
  binding result: binds

B3: yeast Dmc1 wild type (natural protein)
chain: MSVTGTEIDSDTAKNILSVDELQNYGINASDLQKLKSGGIYTVNTVLSTTRRHLCKIKGLSEVKVEKIKEAAGKIIQVGFIPATVQLDIRQRVYSLSTGSKQLDSILGGGIMTMSITEVFGEFRCGKTQMSHTLCVTTQLPREMGGGEGKVAYIDTEGTFRPERIKQIAEGYELDPESCLANVSYARALNSEHQMELVEQLGEELSSGDYRLIVVDSIMANFRVDYCGRGELSERQQKLNQHLFKLNRLAEEFNVAVFLTNQVQSDPGASALFASADGRKPIGGHVLAHASATRILLRKGRGDERVAKLQDSPDMPEKECVYVIGEKGITDSSD
notes: Dmc1 meiotic recombinase, yeast (ScDmc1); wt construct pNRB150, a gift from Dr Zhi Qi; Stood as a helical filament on ssDNA (presynaptic) or dsDNA (postsynaptic) with ATP-Ca2+; The stored protein is named His6-ScDmc1 and no cleavage of the tag is described; also called ScDmc1; ScDmc1 wt; source: E. coli BLR(DE3) plysS (RecA-deficient), purified (Talon beads, Heparin)
[5]
  binding result: binds

B4: human RAD51 mutant 273-PG-274 (natural protein)
chain: MAMQMQLEANADTSVEEESFGPQPISRLEQCGINANDVKKLEEAGFHTVEAVAYAPKKELINIKGISEAKADKILAEAAKLVPMGFTTATEFHQRRSEIIQITTGSKELDKLLQGGIETGSITEMFGEFRTGKTQICHTLAVTCQLPIDRGGGEGKAMYIDTEGTFRPERLLAVAERYGLSGSDVLDNVAYARAFNTDHQTQLLYQASAMMVESRYALLIVDSATALYRTDYSGRGELSARQMHLARFLRMLLRLADEFGVAVVITNQVVAQPGGAAMFAADPKKPIGGNIIAHASTTRLYLRKGRGETRICKIYDSPCLPEAEAMFAINADGVGDAKD
notes: RAD51 recombinase, human, with V273 and D274 of Loop2 changed to P and G (the residues of hDMC1); made from the hRAD51 wt construct by point mutation; Stood as a helical filament on dsDNA (postsynaptic complex, without RS-1); Only an EM map is deposited (EMD-31155), no PDB model; also called PG mutant; source: E. coli BLR(DE3) plysS (RecA-deficient), purified as hRAD51 wt
[6]
  binding result: binds
